From IntAct's records for PubMed 19424970

B1: UL16-binding protein 2 (Homo sapiens), Q9BZM5 (parent)
chain: MAAAAATKILLCLPLLLLLSGWSRAGRADPHSLCYDITVIPKFRPGPRWCAVQGQVDEKTFLHYDCGNKTVTPVSPLGKKLNVTTAWKAQNPVLREVVDILTEQLRDIQLENYTPKEPLTLQARMSCEQKAEGHSSGSWQFSFDGQIFLLFDSEKRMWTTVHPGARKMKEKWENDKVVAMSFHYFSMGDCIGWLEDFLMGMDSTLEPSAGAPLAMSSGTTQLRATATTLILCCLLIILPCFILPGI

Variants of: B1
Details: with nkg2d_human KLRK1, P26718
nkg2d_human KLRK1, P26718, sequence (P26718 whole entry): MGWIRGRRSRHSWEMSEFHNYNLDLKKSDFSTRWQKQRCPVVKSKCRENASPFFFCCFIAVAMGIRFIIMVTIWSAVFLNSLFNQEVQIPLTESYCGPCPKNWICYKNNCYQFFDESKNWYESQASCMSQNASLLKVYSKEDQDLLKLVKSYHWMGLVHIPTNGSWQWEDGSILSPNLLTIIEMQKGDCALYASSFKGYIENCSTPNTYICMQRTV

effect of a mutation on the interaction	Variant
decreasing interaction strength	F141L
